# Key:
# [1] = SDS/2% agarose multimer gel of plasma, densitometry; conditions: glycan lost; control: WT mVwf cDNA
# [2] = plasma VWF:Ag ELISA after hydrodynamic injection in VWF-/- mice; conditions: glycan lost; control: WT mVwf cDNA
# [3] = whole-blood perfusion over collagen, 2500 s-1, platelet coverage; conditions: glycan lost; control: blood of WT-VWF expressing mice
# [4] = VWF antigen ELISA, COS-7 supernatant; conditions: glycan lost; control: WT mVwf
# [5] = VWF antigen ELISA, COS-7 lysate (intracellular retention); conditions: glycan lost; control: WT mVwf
# [6] = in vivo NHS-biotin labelling, residual biotinylated VWF in plasma; conditions: glycan lost; control: WT-mVWF
Substance,oligomerisation [1],"expression_or_secretion, other: VWF:Ag, % of normal murine plasma [2]","other: thrombus formation on collagen under flow, other: platelet surface coverage [3]",expression_or_secretion [4],localisation_or_trafficking [5],"degradation_or_half_life, half_life [6]"
murine VWF (mVWF): S1486A,no change,no change,"decreases, 11.6±1.0 vs 15.8±0.9",–,–,–
murine VWF (mVWF): S1486A/S1487A,no change,no change,–,–,–,–
murine VWF (mVWF): S1487A,no change,no change,–,–,–,–
murine VWF (mVWF): T1248A,no change,no change,–,–,–,–
murine VWF (mVWF): T1248A/T1255A/T1256A (cluster 1),no change,no change,–,–,–,–
murine VWF (mVWF): T1255A,no change,no change,"decreases, 8.2±1.2 vs 15.8±0.9",–,–,–
murine VWF (mVWF): T1255A/T1256A,no change,"decreases, 432±55 vs 833±76","decreases, 6.0±0.9 vs 15.8±0.9",no change,no change,"decreases, 3.0±0.3 vs 6.1±1"
murine VWF (mVWF): T1256A,no change,no change,"decreases, 6.4±1.2 vs 15.8±0.9",–,–,–
murine VWF (mVWF): T1468A,no change,no change,–,–,–,–
murine VWF (mVWF): T1468A/T1477A/S1486A/S1487A (cluster 2),no change,no change,–,–,–,–
murine VWF (mVWF): T1477A,no change,no change,–,–,–,–
murine VWF (mVWF): T1679A,no change,no change,–,–,–,–
murine VWF (mVWF): T2298A,no change,no change,–,–,–,–

# — article PMC3355127
